Earlier results in article PMC11394807.
pKd: −log10 of the molar value. Like-named read-outs stand apart in the source and are kept apart here.

Experiments:
[1] = target: Spike protein (SARS-CoV-2) (UniProt P0DTC2)
[2] = target: Spike protein (SARS-CoV-2) (UniProt P0DTC2); remark: listed apart in the source
[3] = target: Spike protein (SARS-CoV-2) (UniProt P0DTC2); remark: listed apart in the source
[4] = target: Spike protein RBD (SARS-CoV-2) (UniProt P0DTC2)
[5] = target: Spike protein (SARS-CoV-2) (UniProt P0DTC2); remark: listed apart in the source

GRP78, sequence (P11021 19-654): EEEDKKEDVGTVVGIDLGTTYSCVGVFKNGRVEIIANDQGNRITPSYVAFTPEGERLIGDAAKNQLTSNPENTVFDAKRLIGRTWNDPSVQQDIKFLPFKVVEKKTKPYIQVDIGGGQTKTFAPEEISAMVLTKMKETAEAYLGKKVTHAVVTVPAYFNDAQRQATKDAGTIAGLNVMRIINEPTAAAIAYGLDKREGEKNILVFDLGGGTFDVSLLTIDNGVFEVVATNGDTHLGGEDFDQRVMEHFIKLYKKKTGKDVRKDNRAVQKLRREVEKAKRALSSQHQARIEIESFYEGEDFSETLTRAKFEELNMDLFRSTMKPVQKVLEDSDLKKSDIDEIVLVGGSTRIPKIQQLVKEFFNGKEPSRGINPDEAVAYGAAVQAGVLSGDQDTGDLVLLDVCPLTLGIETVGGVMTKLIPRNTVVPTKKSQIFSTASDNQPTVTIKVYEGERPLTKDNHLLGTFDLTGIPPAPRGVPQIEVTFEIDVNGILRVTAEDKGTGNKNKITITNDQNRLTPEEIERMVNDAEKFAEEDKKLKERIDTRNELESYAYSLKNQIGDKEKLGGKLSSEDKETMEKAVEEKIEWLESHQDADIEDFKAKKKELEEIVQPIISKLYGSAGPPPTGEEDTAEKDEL
ASGR1, sequence (P07306 whole entry): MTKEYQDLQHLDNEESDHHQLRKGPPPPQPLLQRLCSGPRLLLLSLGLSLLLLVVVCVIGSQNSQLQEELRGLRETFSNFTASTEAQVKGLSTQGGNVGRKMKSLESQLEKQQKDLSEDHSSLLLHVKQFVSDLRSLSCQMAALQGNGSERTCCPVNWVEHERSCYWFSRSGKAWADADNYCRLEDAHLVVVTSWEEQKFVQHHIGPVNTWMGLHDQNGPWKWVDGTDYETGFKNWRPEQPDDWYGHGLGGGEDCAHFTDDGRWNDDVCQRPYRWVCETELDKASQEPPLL

AXL (from UniProt P30530)
pKd [1]: 6.05

GRP78 (from UniProt P11021)
pKd [2]: 7.26

NRP1 (from UniProt O14786)
pKd [3]: 6.78

CD147 (from UniProt P35613)
pKd [4]: 6.73

ASGR1 (from UniProt P07306)
pKd [5]: 6.90
